Experimental data: patent US20140287419A1, “Compositions Having Dicamba Decarboxylase Activity and Methods of Use” (priority 2013, published 2014)

B1: 7 (protein, listed as Legionella pneumophila)
chain: MAIVDFETHFITEACIDYLTQRQEVPKLVPELNGAYTMCFTPDVSLFHTSALMEELLSLNEQRLAIMDQAGVTIQVLSLTTINGIDSCPGDENKSTALAREVNDQLYSAIQRHPERFKGFASISPYDVKEGVKELERAISQLGFVGWLTHSNFGEDNYLDDKTYWPLLEAAEGLNIPIYLHPNVPIMREFGKYGFALGGSALGFEFDTALCLMRMILGGVFDAFPKLKIMLGHLGETMPFLMERLDHLYRIPDLKAYRPSIQRIPSEVLRQNVYITTSGRFFVPALRYVLEVMGEDRVLFASDYPMESLLDATRFIQDSDLSNQTKQKIFSINAKNLNLI
B2: 90 (protein)
chain: MAATIDRVLYLGNATQRRYTSATVSVPRIFGKVALEEHVGTSIWAKYNLTPPANAVVGVLNRPPTLPNTLDTIARLDDINGRLSSMNHSGIGYVIVSLSSPGIQGVHDTALAIKFSTDINDELYLKYANAYPDKFAFFATVPMQDPVAAASELERAVSLLGAKGAAINGYTDIGPPGNSTTRYLDDPINAPFWSKVAALNVPIYLHPRAPPPSQQLVYNYPNNSLSAYPGLVTGGFAYGAETAVHALRLMLSGLFDTHPNIQIILGHAAEGLPFLIHRSDTQLAAEVPGTNGPYKRPLRYYLRNNFYATLSGVRRLSTTQCTLAEMGEERVLFSVDYPFQSNEDAADWFDGVEGMSVETKRKVARGNARRLFNLTVDLDERQIDGDFM
modifications: Pyrenophora tritici-repentis
B3: 92 (protein, listed as Chitinophaga pinensis)
chain: MARIVTLEEHVSFPEMTALLPEEILKNRKQSGAALQMQEKLADITGERLTSMKAAGISMQVLSVENTDVYLLPDSLAPAFAAKYNDLLADKISSHSDAFAAFAMLPMTVPEAAADELERAVKTHGFCGAMIKGLINGVFLDAPKFAPVFACAEKLGVPLYIHPGIPPKEVIDAYYSNVGDTKGPNEAIACYGWGWHSETAIHILRLLAAGIFDKYPQLNIIIGHMGEMLPMMWERSNRVFQPGNNGKNQRTLIETFRKQLYITTSGIFTQPPLQIAIDTIGIDNILFSIDYPFSSNQMGIDFLTKAALPAEQLAKMAHGNADRILKF
B4: 85 (protein, listed as Maritimibacter alkaliphilus)
chain: MAADRKPGLVSVEEGFMIPEVVAELSRIAGGVPSMKSGPIAGPFMDDLLDIGKGRVARMDADGVAVQILALAAPGVQKFDPDTALALSRLTNDRLAEAIAAHPARFGGLAAAPPQAAREGAKELDRAITTLGLNGLIVNSHTNDLYLDDPSFWPLLEAAEALDVPVYLHPREPAAGIEGGLMAMTGFTVGWAYAVETGTHLLRMIAAGVFDRFPRLRIVLGHLGEMIPFMLDRIDNRYPFEMGVTGAKPLPRKPSDYFRDHVTVATSGMNFNAPMRAAIEVLGADKVMFAADYPMERQDEEVAKFAALDLTPDERKRIGEDNARRVFGL
B5: 94 (protein, listed as Bacillus thuringiensis)
chain: MANRGDSNMKSLVGVIMGSTSDWETMKYACDILDELNIPYEKKVVSAHRTPDYMFEYAETARERGLKVIIAGAGGAAHLPGMVAAKTNLPVIGVPVQSKALNGLDSLLSIVQMPGGVPVATVAIGKAGSTNAGLLAAQILGSFHDDIHDALELRREAIEKDVREGSELV
B6: 89 (protein, listed as Erwinia billingiae)
chain: MATNRRDFLKNATAVMAGSTVFAGSSHFASAAAVEPAAVQPPRRIIALEEHFMLPEFVGYLHETQQNLRNGLVDKVVTPLSDFGKGRLEIMDKNGVDFAVLSLSGPGVQAEPDRVKAVRLARYANDKLATEMQKNPRRYGGFAHLAMQDPLAAANELERCVKQLHMQGGMINGETDGLYLDDRRYDVFWERVEALNVPIYIHPGNPPDYPHMFAGHPEMWGPVWSWAVETCSHALRLIFSGTFDRYPGARVILGHMGETLPIQLWRLDSRYQIANQTFAIKHPPSWYAKKNITITTSGVCNDAALRCALDSMGSENVMFSIDYPFESTEIAVNWLKTANITEQERNAVAWGNATSILRLGA
B7: 83 (protein, listed as Mycobacterium rhodesiae)
chain: MALIALEEHYAWSPVSAGNVVGSWLETHNVTAYQRLYDRGPLRLEQMDAAGIDFQILSLFDPGVQDDDDTARAVENARRANDDLAETVRAAPDRFGGFATLAPQDPDAAAAELERAVGELGLVGGLINGHTHGRYLDDPAYLGLFECAQRLGVPIYLHPTTPHPAVMDAWFAPYVKDGLHLASWGFAAETGTHALRLIYSGLFDTFPRLQMILGHLGEMLPYAAYRIDRYYGLGGGDDGGRLARLPSEYLRDNFHVTTSGNFNPVAFACALDVMGPDRLMFSVDYPMDDNVTGAEFLRNLEVDDDVRRKVAGENALQLFGDKIPRR
B8: 88 (protein, listed as Starkeya novella)
chain: MARKIALEEHFTTPELAGKYVARPTQSDALFADIERRLADFDELRLEMMDRAEIDLMVLSVTTPGVQGVRDTGEAIRLARGANDFLAREVQKRPSRYAGFAHLAMQDAEAAATELERAVRELGFRGALINGQTNGHYLDEDQYAPFWERVQELDVPVYLHPGNMADSPAMFAHRPELGGPIWAWTAETAAHALRLVFGGTFTRFPGAKVILGHMGETLPFLLWRLDSRREFDLGEKLAPDALPSAIIKRNIAVTTSGVCDPAPLVAALQALSDDNVMFSVDYPYEDPQLASKFIETAPIGEETRAKVCHGNAERLLGL
B9: 86 (protein, listed as Sphingopyxis alaskensis)
chain: MALGASVASREASAQMAKAPMRKIATEEAFATPELAKAWLEIARSEPNSSLDIPTGILSIFDNPRPGSNQDRFRRQLLDVDAERIRDMDEAGVDMQLLSVTIPGVQIFEPARAGELAVTTNDHLAAAIARRPTRFAGLACFAPHDPVQATREMERAVNALGLKGFIVNSHTQDLYLDDPRFAPVLEAAQSLDCPIYLHPRAPSNGMAAPFRDYSMGGSIWGFGVEAGTHAVRMILSGVFDRYPRLRIVLGHMGEALPFWMWRLDHMAARRAKDGRMKPLSLAPSEYFKRNFAVTTSGFESPDVLDLVIKVAGIENIMWAIDYPYESSRDAVTFIEGADLTASQRASIFHRNAVRHFRLS
B10: 93 (protein, listed as Mucilaginibacter paludis)
chain: MAKYGKHITINKNMRIVTLEEHISFPEMADQIPKAALGSFGRSEAMQRIAPKLADITGERLKSMDANGISMQVLSVDSSGVNLLSPQQGPAFATQYNDLIANRIAGFEKRFTAFAHLPMTAPFAAADELERAVKEHHFCGAMIRGLTGDQFLDHPQFAPIFERAQKLDVPIYLHPGLPPKGVADIYYSGLPNYSGMAEALACYGWGWHSETALHVLRLLFSGIFDQYPKLKLVIGHMGEMLPMMMARSEKAFKPGNGGANVRTLTDTFRSQVYLTTSGFFTQPPLKIALDTFGIDHVMFSVDYPFSTNEMGIEFLNEIDLPDEEVARIAHGNADKLLNLKA
B11: 87 (protein, listed as Novosphingobium sp.)
chain: MASDIATAADLQTGGRQGYLRIATEEAFATRDQIDVYLRMVRDGTADRGMTSLWGFYAQSPSARATQIIERLLDLGEQRLADMDAAGIDKAVLALTSPGVQPLLDMEEARRIAGNANDRLAERCAAHPDRFIGMTAVAPQDPQWSAREILRGATQLGFKGVQINSHTQGRYLDEPFFDPIFRALGDVGQPLYIHPGTPPDSMIGPLLDAGLDGAIYGFGVETGMHLLRLITAGIFDRYPDLQIMVGHMGEALPYWLYRLDYMHQAGIRSQRYERMRPLKRTIAGYFRSNVLVTCSGMAWEPAIQFARQVMGEDRVMYAMDYPYQYEADEVRALDVMDLSPESKRKFFQTNAERWFDL
B12: 91 (protein, listed as Botryotinia fuckeliana)
chain: MASFVCNFGKAALATLLLTPSISAADYTPQETVLNSGRPTFYDASTSIPGKIALEEHVGNDLLNGLYTVPYYPNTNEPQYSDSVYIADVGEKMLDIPSRIANMDAANISISVLTFGGPGIQGVFNATYATYAAGYVNDYLYKNYKNNANYTGRFEFWCSNALQEPSKAATELERCVKELGGVGSFVGGYTNNGGINGTANDIVYLDDPSMEPFLEKVVELDVPIYLHPRMPAPSQLLSVKGYEFLGSSPWGFSSETGAHALRLMVSGTLDKYPTLKIVLGHCGEGLPFFLPRIDQRLRHFKKELFNNTLTMEEYWLRNFYVTTAGVQDAGTLVDTIKRTGEDRVMFSVDYPFEDTVEIAGWFDRLEMNTLTKTKLAYENAKALLKLTCYVDAEKRPRIFNKHHVDDIIKHTHSPCIWTLFH
B13: 96 (protein)
chain: MAPLIVDVHTHVYPPAYMQMLRSRKTVPYVHDPSNNRDPRLIILSSDDDASIPLDQRGRPVDSSYWDINVKLSFMRQHGINCSVISLANPWLDFVEPAEAQMWAERINDDLEKTCATVNKAADPGNTLTLDQKETLFAFGALPLSAPSSESVVAEIKRLKTLEHLRGVIMGTSGLGKGLDDARLDPVWEALQETDMLMFLHPHYGLPEEAYGGPETTGRYGHVLPLALGFPLETTIAVTRMLLSGVFDRFPRLKILLAHSGGTLPFLAGRIESCILHERKFISGGGDVQGPQRSVWDVLKTNIYLDAVVYGKPGLEAAMTASGSDRLLFGTDHPFFPPLDSKDNSWPSVTTNYQAIHATFDTNSKTVADVLGGNAARILNLK
modifications: Aspergillus nidulans
B14: 84 (protein, listed as Mycobacterium rhodesiae)
chain: MASLIALEEHYAWDPASEGNVVATWLRANNGVAYDRLYDRGPLRIEQMDAAGIDFQILSLFDPGVQDEVDAVRAVDLARRANDDLAESVRANPSRFGGFATLATQQPDAAVAEFDRAVTELGLVGGLINGHCQGRYLDDPAYEALFSRAEALGAPIYLHPTTPHPAVMDAWFAPYVGDGLHLASWGFAAETGTHVLRLIYSGLFDKFPRLQMIIGHLGEMLPFAAYRIDRYYGLGGGGTGHTLQHLPSDYLRNNFHVTTSGNFCSPALDCTLDVMGADRVMFSVDYPMDDNQTGADFLASYPMDDTNRRKVASENALRLFGDRIPAALRN

Test: 14C assay with IPTG-induced recombinant E. coli cells (14CO2 capture from [14C]-carboxyl-labeled dicamba)
Settings: IPTG-induced recombinant E. coli cells; [14C]-carboxyl-labeled dicamba; 14CO2 capture

| Molecule | Dicamba Decarboxylase Activity |
| --- | --- |
| B1 | No |
| B2 | Low |
| B3 | Yes |
| B4 | Low |
| B5 | No |
| B6 | High |
| B7 | Low |
| B8 | High |
| B9 | Low |
| B10 | Low |
| B11 | High |
| B12 | Low |
| B13 | No |
| B14 | Low |

Same assay, conditions: dicamba decarboxylation activity of the protein of the given SEQ ID NO

| Molecule | Enzymatic Detection level |
| --- | --- |
| B1 | No |
| B2 | Low |
| B3 | High |
| B4 | Low |
| B5 | No |
| B6 | High |
| B7 | Low |
| B8 | High |
| B9 | Low |
| B10 | Low |
| B11 | High |
| B12 | Low |
| B13 | No |
| B14 | Low |
